Reference: the Human Domainome abundance scans (Beltran et al. 2025)
± gives the uncertainty stated by the source.

B1: Cullin-9, residues 2234 to 2275; numbered along this chain, Q8IWT3 (parent)
chain: KRCPSCQAPIEKNEGCLHMTCAKCNHGFCWRCLKSWKPNHKD

Variants of: B1
Assay: abundance fitness (aPCA) (normalised: wild type 0, dead -1); higher = more abundant; growth selection in yeast, the domain comes from the species named
Details: Homo sapiens
Work on KRQPSCQAPIEKNEGCLHMTCAKCNHGFCWRCLKSWKPNHKD [C3Q] yielded an abundance fitness of -1.07 ± 0.14. KRNPSCQAPIEKNEGCLHMTCAKCNHGFCWRCLKSWKPNHKD [C3N] gave an abundance fitness of 0.169 ± 0.24. Work on KREPSCQAPIEKNEGCLHMTCAKCNHGFCWRCLKSWKPNHKD [C3E] yielded an abundance fitness of -0.474 ± 0.17. Work on KRKPSCQAPIEKNEGCLHMTCAKCNHGFCWRCLKSWKPNHKD [C3K] yielded an abundance fitness of -0.658 ± 0.13. Work on KRTPSCQAPIEKNEGCLHMTCAKCNHGFCWRCLKSWKPNHKD [C3T] yielded an abundance fitness of -0.435 ± 0.15. Variant KRGPSCQAPIEKNEGCLHMTCAKCNHGFCWRCLKSWKPNHKD [C3G] has an abundance fitness of -0.485 ± 0.08. In the case of KRSPSCQAPIEKNEGCLHMTCAKCNHGFCWRCLKSWKPNHKD [C3S], the abundance fitness is reported as -0.303 ± 0.092. Work on KRHPSCQAPIEKNEGCLHMTCAKCNHGFCWRCLKSWKPNHKD [C3H] yielded an abundance fitness of -0.249 ± 0.15. Variant KRYPSCQAPIEKNEGCLHMTCAKCNHGFCWRCLKSWKPNHKD [C3Y] has an abundance fitness of -0.342 ± 0.16. KRIPSCQAPIEKNEGCLHMTCAKCNHGFCWRCLKSWKPNHKD [C3I] showed an abundance fitness of 0.698 ± 0.13. Variant KRVPSCQAPIEKNEGCLHMTCAKCNHGFCWRCLKSWKPNHKD [C3V] has an abundance fitness of -0.348 ± 0.092. Work on KRPPSCQAPIEKNEGCLHMTCAKCNHGFCWRCLKSWKPNHKD [C3P] yielded an abundance fitness of -0.945 ± 0.13. With KRFPSCQAPIEKNEGCLHMTCAKCNHGFCWRCLKSWKPNHKD [C3F] the abundance fitness was -0.416 ± 0.2. For KRDPSCQAPIEKNEGCLHMTCAKCNHGFCWRCLKSWKPNHKD [C3D], the abundance fitness was -0.018 ± 0.13. Work on KRAPSCQAPIEKNEGCLHMTCAKCNHGFCWRCLKSWKPNHKD [C3A] yielded an abundance fitness of -1.03 ± 0.12. For KRRPSCQAPIEKNEGCLHMTCAKCNHGFCWRCLKSWKPNHKD [C3R], the abundance fitness was -0.751 ± 0.089. In the case of KRCPSCQAKIEKNEGCLHMTCAKCNHGFCWRCLKSWKPNHKD [P9K], the abundance fitness is reported as -0.349 ± 0.15. With KRCPSCQAEIEKNEGCLHMTCAKCNHGFCWRCLKSWKPNHKD [P9E] the abundance fitness was 0.051 ± 0.092. With KRCPSCQACIEKNEGCLHMTCAKCNHGFCWRCLKSWKPNHKD [P9C] the abundance fitness was -0.074 ± 0.13. KRCPSCQAFIEKNEGCLHMTCAKCNHGFCWRCLKSWKPNHKD [P9F] showed an abundance fitness of -0.373 ± 0.21. KRCPSCQALIEKNEGCLHMTCAKCNHGFCWRCLKSWKPNHKD [P9L] gave an abundance fitness of -0.39 ± 0.089. For KRCPSCQADIEKNEGCLHMTCAKCNHGFCWRCLKSWKPNHKD [P9D], the abundance fitness was -0.267 ± 0.42. In the case of KRCPSCQAIIEKNEGCLHMTCAKCNHGFCWRCLKSWKPNHKD [P9I], the abundance fitness is reported as -0.53 ± 0.41. With KRCPSCQAAIEKNEGCLHMTCAKCNHGFCWRCLKSWKPNHKD [P9A] the abundance fitness was -0.198 ± 0.09. In the case of KRCPSCQAHIEKNEGCLHMTCAKCNHGFCWRCLKSWKPNHKD [P9H], the abundance fitness is reported as -0.291 ± 0.16. In the case of KRCPHCQAPIEKNEGCLHMTCAKCNHGFCWRCLKSWKPNHKD [S5H], the abundance fitness is reported as -0.336 ± 0.32. KRCPLCQAPIEKNEGCLHMTCAKCNHGFCWRCLKSWKPNHKD [S5L] showed an abundance fitness of -0.121 ± 0.081. Variant KRCPICQAPIEKNEGCLHMTCAKCNHGFCWRCLKSWKPNHKD [S5I] has an abundance fitness of -0.142 ± 0.23. With KRCPTCQAPIEKNEGCLHMTCAKCNHGFCWRCLKSWKPNHKD [S5T] the abundance fitness was 0.224 ± 0.087. KRCPYCQAPIEKNEGCLHMTCAKCNHGFCWRCLKSWKPNHKD [S5Y] showed an abundance fitness of -0.291 ± 0.17. For KRCPDCQAPIEKNEGCLHMTCAKCNHGFCWRCLKSWKPNHKD [S5D], the abundance fitness was -0.147 ± 0.12. KRCPWCQAPIEKNEGCLHMTCAKCNHGFCWRCLKSWKPNHKD [S5W] gave an abundance fitness of 0.313 ± 0.085. KRCPCCQAPIEKNEGCLHMTCAKCNHGFCWRCLKSWKPNHKD [S5C] showed an abundance fitness of 0.137 ± 0.1. In the case of KRCPQCQAPIEKNEGCLHMTCAKCNHGFCWRCLKSWKPNHKD [S5Q], the abundance fitness is reported as 0.31 ± 0.095. Variant KRCPKCQAPIEKNEGCLHMTCAKCNHGFCWRCLKSWKPNHKD [S5K] has an abundance fitness of 0.489 ± 0.11. With KRCPPCQAPIEKNEGCLHMTCAKCNHGFCWRCLKSWKPNHKD [S5P] the abundance fitness was -0.401 ± 0.1. KRCPVCQAPIEKNEGCLHMTCAKCNHGFCWRCLKSWKPNHKD [S5V] gave an abundance fitness of 0.259 ± 0.078. Variant KRCPACQAPIEKNEGCLHMTCAKCNHGFCWRCLKSWKPNHKD [S5A] has an abundance fitness of 0.462 ± 0.074. In the case of KRCPECQAPIEKNEGCLHMTCAKCNHGFCWRCLKSWKPNHKD [S5E], the abundance fitness is reported as 0.496 ± 0.091. With KRCPMCQAPIEKNEGCLHMTCAKCNHGFCWRCLKSWKPNHKD [S5M] the abundance fitness was 0.395 ± 0.11. Variant KRCPGCQAPIEKNEGCLHMTCAKCNHGFCWRCLKSWKPNHKD [S5G] has an abundance fitness of 0.56 ± 0.07. In the case of KRCASCQAPIEKNEGCLHMTCAKCNHGFCWRCLKSWKPNHKD [P4A], the abundance fitness is reported as 0.098 ± 0.078. Variant KRCVSCQAPIEKNEGCLHMTCAKCNHGFCWRCLKSWKPNHKD [P4V] has an abundance fitness of 0.117 ± 0.078. Variant KRCRSCQAPIEKNEGCLHMTCAKCNHGFCWRCLKSWKPNHKD [P4R] has an abundance fitness of -0.41 ± 0.089. KRCCSCQAPIEKNEGCLHMTCAKCNHGFCWRCLKSWKPNHKD [P4C] gave an abundance fitness of 0.182 ± 0.12. Variant KRCFSCQAPIEKNEGCLHMTCAKCNHGFCWRCLKSWKPNHKD [P4F] has an abundance fitness of 0.434 ± 0.21. KRCHSCQAPIEKNEGCLHMTCAKCNHGFCWRCLKSWKPNHKD [P4H] gave an abundance fitness of -0.022 ± 0.32. Work on KRCESCQAPIEKNEGCLHMTCAKCNHGFCWRCLKSWKPNHKD [P4E] yielded an abundance fitness of -1.27 ± 0.14. Variant KRCTSCQAPIEKNEGCLHMTCAKCNHGFCWRCLKSWKPNHKD [P4T] has an abundance fitness of 0.002 ± 0.1. Work on KRCYSCQAPIEKNEGCLHMTCAKCNHGFCWRCLKSWKPNHKD [P4Y] yielded an abundance fitness of 0.231 ± 0.17. In the case of KRCISCQAPIEKNEGCLHMTCAKCNHGFCWRCLKSWKPNHKD [P4I], the abundance fitness is reported as 0.013 ± 0.14. Work on KRCSSCQAPIEKNEGCLHMTCAKCNHGFCWRCLKSWKPNHKD [P4S] yielded an abundance fitness of -0.129 ± 0.099. For KRCLSCQAPIEKNEGCLHMTCAKCNHGFCWRCLKSWKPNHKD [P4L], the abundance fitness was 0.065 ± 0.094. KRCWSCQAPIEKNEGCLHMTCAKCNHGFCWRCLKSWKPNHKD [P4W] gave an abundance fitness of -0.147 ± 0.092. Variant KRCMSCQAPIEKNEGCLHMTCAKCNHGFCWRCLKSWKPNHKD [P4M] has an abundance fitness of -0.079 ± 0.11. KRCDSCQAPIEKNEGCLHMTCAKCNHGFCWRCLKSWKPNHKD [P4D] showed an abundance fitness of -1.47 ± 0.39. With KRCGSCQAPIEKNEGCLHMTCAKCNHGFCWRCLKSWKPNHKD [P4G] the abundance fitness was 0.056 ± 0.07. KRCQSCQAPIEKNEGCLHMTCAKCNHGFCWRCLKSWKPNHKD [P4Q] showed an abundance fitness of -0.351 ± 0.11. KRCKSCQAPIEKNEGCLHMTCAKCNHGFCWRCLKSWKPNHKD [P4K] gave an abundance fitness of -1.44 ± 0.33. In the case of KRCNSCQAPIEKNEGCLHMTCAKCNHGFCWRCLKSWKPNHKD [P4N], the abundance fitness is reported as -1.15 ± 0.28.
